In assay [1] the target is T1, murine PD-L1 coupled to human Fc (murine, UniProt Q9EP73 19-238, limits assumed).
T1 construct: also called murine PD-L1-Fc; mouse PD-L1 coupled to Fc; not shown: human Fc
The assay is described as follows: ELISA on coated murine PD-L1-Fc, Fab detected with anti-human Fab-HRP, absorbance 450-670 nm. On the procedure: (§1) After 90 minutes at room temperature under agitation and extensive washes, a goat anti-human Fab antibody coupled to HRP was added. One hour later, plates were washed and TMB substrate added. The reaction was stopped with 1M HCl and optical density measured at 450 nm with a reference at 670 nm.

For assay [2], the target named is T2, biotinylated human PD-L1 (human, UniProt Q9NZQ7 19-238, limits assumed, biotinylated (site not stated)). Kind of assay: blocking ELISA: biotinylated human PD-L1 pre-incubated with Fab, then added to coated human PD-1-Fc (blocked partner), streptavidin-HRP. (In general: ELISA stands for enzyme-linked immunosorbent assay.)
T2 sequence (Q9NZQ7 19-238 limits assumed): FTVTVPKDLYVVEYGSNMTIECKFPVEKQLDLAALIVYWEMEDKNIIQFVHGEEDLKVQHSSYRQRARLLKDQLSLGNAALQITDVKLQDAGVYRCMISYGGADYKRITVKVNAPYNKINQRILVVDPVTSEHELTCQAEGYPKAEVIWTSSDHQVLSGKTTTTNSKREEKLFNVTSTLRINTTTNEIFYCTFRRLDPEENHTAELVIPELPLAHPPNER
The target of assay [3] is T3, biotinylated murine PD-L1 (murine, UniProt Q9EP73 19-238, limits assumed, biotinylated (site not stated)). Kind of assay: blocking ELISA: biotinylated murine PD-L1 pre-incubated with Fab, then added to coated murine PD-1-Fc (blocked partner), streptavidin-HRP.
T3 sequence (Q9EP73 19-238 limits assumed): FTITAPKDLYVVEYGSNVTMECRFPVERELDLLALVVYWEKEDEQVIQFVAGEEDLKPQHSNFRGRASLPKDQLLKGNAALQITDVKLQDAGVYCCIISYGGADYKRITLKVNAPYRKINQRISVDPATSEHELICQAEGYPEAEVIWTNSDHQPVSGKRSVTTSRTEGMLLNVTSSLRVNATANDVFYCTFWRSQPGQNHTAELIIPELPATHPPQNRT
Assay [4] addresses PD-L1 (blocking ELISA of Example 13) (Homo sapiens (Human), UniProt Q9NZQ7 19-238). Kind of assay: blocking ELISA: antibody pre-incubated with PD-L1, added to coated PD-1 (blocked partner), PD-1-bound PD-L1 detected.
In assay [5] the target is T2, biotinylated human PD-L1. The assay is described as follows: ELISA: antibody coated at 2 ug/mL, biotinylated human PD-L1 titrated (x axis Human PD-L1, nM), streptavidin-HRP. On the procedure:
Binding was measured by ELISA. Antibodies were coated onto maxisorp plates at 2 μg/mL in coating buffer and incubated overnight at 4° C. The next day, plates were washed with wash buffer (PBS+0.05% Tween-20), and blocker with casein for 1 hour, at room temperature. Plates were then washed again using wash buffer. […] Plates were then washed again using wash buffer. […] Plates were then washed again using wash buffer. Finally, TMB was added to develop the ELISA; TMB conversion by HRP was stopped using 1M H-Cl.

In assay [6] the target is T2, biotinylated human PD-L1. The assay is described as follows: avidity ELISA: biotinylated human PD-L1 at 0.2 ug/mL on neutravidin, antibody titrated (x axis IgG, nM), anti-human Fc-HRP. The protocol: Neutravidin was coated onto maxisorp plates at 2 μg/mL in coating buffer and incubated overnight at 4° C. The next day, plates were washed with wash buffer (PBS+0.05% Tween-20), and blocker with casein for 1 hour, at room temperature. Plates were then washed again using wash buffer. […] Plates were then washed again using wash buffer. The different antibodies were then added at various concentrations, and incubated for 1 hour at room temperature. Plates were then washed again using wash buffer. Anti-human Fc-HRP was then added and incubated for 1 hour at room temperature. Plates were then washed again using wash buffer. Finally, TMB was added to develop the ELISA; TMB conversion by HRP was stopped using 1M H-Cl.

Assay [7] concerns the target T4, PD-L1 on MDA-MB-231 human breast cancer cells (human, UniProt Q9NZQ7 19-290).
T4 construct: whole, on cells; also called cells expressing PD-L1
The assay is described as follows: flow cytometry on MDA-MB-231 cells expressing PD-L1, MFI against IgG1 (nM). (Flow cytometry measures light scatter and fluorescence of single cells or particles in a stream.)

Assay [8] addresses T5, human PD-L1 expressed on transfected HEK 293 cells (human, UniProt Q9NZQ7 19-290).
T5 construct: whole, on cells; also called PD-L1 transfected cells; HEK293-6E cells transfected with human PD-L1
The assay is described as follows: flow cytometry blocking assay: antibody mixed with human PD-1-PE (blocked partner), added to HEK293 cells transfected with human PD-L1. From the text:
Cells were washed 3 times with PBS and all data were collected on a BD FACSCanto II (BD Bioscience) and analysed on BD FACSDiva software (BD Bioscience).

Assay [9] deals with T3, biotinylated murine PD-L1. The assay is described as follows: blocking ELISA of murine PD-L1 binding to murine PD-1 (blocked partner), Example 3.
The next assay deals with T6, human ICOS (human, UniProt Q9Y6W8 21-140, limits assumed).
T6 construct: also called hu ICOS
T6 sequence (looked up): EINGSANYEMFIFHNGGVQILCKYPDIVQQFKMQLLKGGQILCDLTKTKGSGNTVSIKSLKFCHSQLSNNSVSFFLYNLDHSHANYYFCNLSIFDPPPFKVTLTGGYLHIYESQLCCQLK
The assay is described as follows: ELISA on coated antigen (sheet label huICOS-Fc).

The target of assay [10] is T7, human PD-1 (ELISA antigen of Example 8) (human, UniProt Q15116 25-167, limits assumed).
T7 construct: also called hu PD-1
T7 sequence (Q15116 25-167 limits assumed): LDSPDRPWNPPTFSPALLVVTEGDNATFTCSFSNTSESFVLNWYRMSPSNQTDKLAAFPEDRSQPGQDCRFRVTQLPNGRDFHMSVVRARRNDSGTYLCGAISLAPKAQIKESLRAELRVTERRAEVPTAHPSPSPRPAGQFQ
Kind of assay: ELISA on coated antigen (sheet label huPD-1-Fc).

The next assay concerns the target T8, human PD-L2 (human, UniProt Q9BQ51 20-220, limits assumed).
T8 construct: also called hu PD-L2
T8 sequence (looked up): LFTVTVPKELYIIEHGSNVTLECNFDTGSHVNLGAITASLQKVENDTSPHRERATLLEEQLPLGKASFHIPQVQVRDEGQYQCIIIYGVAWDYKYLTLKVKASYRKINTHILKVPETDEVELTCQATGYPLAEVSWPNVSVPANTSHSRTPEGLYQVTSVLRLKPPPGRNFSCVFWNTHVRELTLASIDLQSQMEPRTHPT
Kind of assay: ELISA on coated antigen (sheet label huPD-L2-Fc).

The target in a further assay is T9, human BTLA (human, UniProt Q7Z6A9 31-151, limits assumed).
T9 construct: also called hu BLTA
T9 sequence (Q7Z6A9 31-151 limits assumed): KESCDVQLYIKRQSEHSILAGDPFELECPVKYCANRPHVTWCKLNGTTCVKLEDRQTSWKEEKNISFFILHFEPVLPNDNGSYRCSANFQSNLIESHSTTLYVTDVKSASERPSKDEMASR
Kind of assay: ELISA on coated antigen (sheet label huBTLA-Fc).

The next assay addresses T10, human LAG-3 (human, UniProt P18627 23-450, limits assumed).
T10 construct: also called hu LAG-3
T10 sequence (looked up): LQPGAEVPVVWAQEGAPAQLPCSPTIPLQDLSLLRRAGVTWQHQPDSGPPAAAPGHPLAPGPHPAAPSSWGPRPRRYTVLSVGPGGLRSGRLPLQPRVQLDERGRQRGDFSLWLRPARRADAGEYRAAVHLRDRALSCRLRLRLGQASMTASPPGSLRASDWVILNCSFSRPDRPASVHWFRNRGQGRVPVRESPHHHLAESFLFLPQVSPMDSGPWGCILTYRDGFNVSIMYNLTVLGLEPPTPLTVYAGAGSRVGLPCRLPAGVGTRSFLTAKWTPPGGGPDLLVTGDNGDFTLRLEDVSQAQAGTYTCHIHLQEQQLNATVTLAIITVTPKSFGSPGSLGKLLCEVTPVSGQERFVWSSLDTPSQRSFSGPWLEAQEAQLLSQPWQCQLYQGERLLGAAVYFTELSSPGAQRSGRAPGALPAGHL
Kind of assay: ELISA on coated antigen (sheet label huLAG-3-Fc).

The next assay addresses T11, human CTLA-4 (human, UniProt P16410 36-162, limits assumed).
T11 construct: also called hu CTL-A4
The assay is described as follows: ELISA on coated antigen (sheet label huCTL-A4).

The next assay deals with T12, human TIM-3 (human, UniProt Q8TDQ0 22-200, limits assumed).
T12 construct: also called hu TIM-3
The assay is described as follows: ELISA on coated antigen (sheet label huTIM-3-Fc).

The next assay concerns the target T13, human CD28 (human, UniProt P10747 19-152, limits assumed).
T13 construct: also called hu CD28
The assay is described as follows: ELISA on coated antigen (sheet label huCD28-Fc).

The target of assay [11] is T14, human PD-L1 coupled to human Fc (human, UniProt Q9NZQ7 19-239, limits assumed).
T14 construct: also called human PD-L1-Fc; not shown: human Fc
T14 sequence (Q9NZQ7 19-239 limits assumed): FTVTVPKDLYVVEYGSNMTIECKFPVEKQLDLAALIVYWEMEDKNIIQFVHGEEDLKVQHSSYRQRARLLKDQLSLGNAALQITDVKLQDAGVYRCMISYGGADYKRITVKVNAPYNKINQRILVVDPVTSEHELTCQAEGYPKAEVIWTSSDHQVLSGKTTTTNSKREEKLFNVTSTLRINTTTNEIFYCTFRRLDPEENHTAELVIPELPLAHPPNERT
The assay is described as follows: ELISA on coated human PD-L1-Fc, Fab detected with anti-human Fab-HRP, absorbance 450-670 nm. On the procedure: as §1

The target in assay [12] is T15, human PD-L1 (ELISA antigen, construct not stated) (human, UniProt Q9NZQ7 19-238, limits assumed).
T15 construct: The construct is not described; also called hu PD-L1
T15 sequence (Q9NZQ7 19-238 limits assumed): as the sequence (Q9NZQ7 19-238 limits assumed) above
Kind of assay: ELISA of Fab clones with human PD-L1 as antigen.

Residue numbers refer to the chain shown, from its start.

T5 sequence (Q9NZQ7 19-290): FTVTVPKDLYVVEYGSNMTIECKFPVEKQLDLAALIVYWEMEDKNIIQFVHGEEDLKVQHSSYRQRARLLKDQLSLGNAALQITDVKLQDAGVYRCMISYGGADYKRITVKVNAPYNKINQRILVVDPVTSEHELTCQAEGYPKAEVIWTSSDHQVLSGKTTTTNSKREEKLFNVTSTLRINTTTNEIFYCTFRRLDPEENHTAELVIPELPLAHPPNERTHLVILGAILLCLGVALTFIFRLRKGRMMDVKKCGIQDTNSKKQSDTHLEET
T1 sequence (Q9EP73 19-238 limits assumed): as the sequence (Q9EP73 19-238 limits assumed) above
T4 sequence (Q9NZQ7 19-290): as the sequence (Q9NZQ7 19-290) above
Chain of PD-L1 (blocking ELISA of Example 13) (Q9NZQ7 19-238 limits assumed): as the sequence (Q9NZQ7 19-238 limits assumed) above
T11 sequence (P16410 36-162 limits assumed): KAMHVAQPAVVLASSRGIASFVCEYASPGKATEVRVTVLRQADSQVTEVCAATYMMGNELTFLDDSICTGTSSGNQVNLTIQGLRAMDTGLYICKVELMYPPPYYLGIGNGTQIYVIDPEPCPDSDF

B1: anti-PD-L1 antibody clone C4, Fab format (Fab, V domains shown)
VH: QVQLQQSGAEVKKPGSSVKVSCKASGGTFSSYAISWVRQAPGQGLEWMGRIIPILGIANYAQKFQGRVTITADKSTSTAYMELSSLRSEDTAVYYCARGGYGGNSLYAFDIWGQGTMVTVSS
VL: QSVVTQPPSVSAAPGQKVTISCSGSSSNIGNNYVSWYQQLPGTAPKLLIYDNNERLSGIPDRFSGSKSGTSATLGISGLQTGDEADYYCGTWDSSLSVVVFGGGTKLTVL
notes: Tested as Fab
B1: the binding result in [1] and in assay [3] was “binds” in each case. Further, the “IC50 (read off the curve)” value in the assay with biotinylated human PD-L1 [2] is approximately 50 nM.

B2: anti-PD-L1 antibody C4 (format not stated) (antibody, V domains shown)
VH: B1 VH
VL: B1 VL
Regarding B2, the “IC50 (read off the curve)” value in assay [4] is approximately 2 nM. The concentration giving a half-maximal response (EC50 (read off the curve)) with biotinylated human PD-L1 [5] is approximately 0.8 nM; with biotinylated human PD-L1 [6], approximately 1 nM.

B3: anti-PD-L1 antibody C4 in IgG1 format (antibody, V domains shown)
VH: B1 VH
VL: B1 VL
notes: also called C4 IgG1
In the case of B3, in assay [7], the concentration for a half-maximal effect (EC50 (read off the curve)) was approximately 200 nM.

B4: anti-PD-L1 antibody H12 in IgG1 format (antibody, V domains shown)
VH: EVQLVQSGAEVKKPGASVKVSCKASGGTFSSYAISWVRQAPGQGLEWMGRIIPILGIANYAQKFQGRVTITADKSTSTAYMELSSLRSEDTAVYYCARSGHGYSYGAFDYWGQGTL
VL: QSVLTQPPSVSGAPGQRVTISCTGSSSNIGAGYDVHWYQQLPGTAPKLLIYGNSNRPSGVPDRFSGSKSGTSASLAITGLQAEDEADYYCQSYDSSLSGSYVVFGGGTKLTVL
notes: IgG1; also called H12 (IgG1); H12-IgG1
Turning to B4, the “IC50 (read off the curve)” value in assay [8] is approximately 8 nM; in assay [9], approximately 1 nM. Also, the “EC50 (read off the curve)” value in assay [7] is approximately 200 nM.

B5: anti-PD-L1 antibody H12 (format not stated) (antibody, V domains shown)
VH: B4 VH
VL: B4 VL
Consider B5, for which the “IC50 (read off the curve)” value in assay [4] is approximately 2 nM. For the same molecule, the binding result (with human ICOS; in assay [10]; with human PD-L2; with human BTLA; with human LAG-3; in the assay with human CTLA-4) was “no binding” throughout. Besides, the binding result with human TIM-3 and with human CD28 was “no binding” in each case. The “EC50 (read off the curve)” value is approximately 0.4 nM with biotinylated human PD-L1 [5] and approximately 0.1 nM in the assay with biotinylated human PD-L1 [6].

B6: anti-PD-L1 antibody H12 in IgG4 format (antibody, V domains shown)
VH: B4 VH
VL: B4 VL
notes: IgG4; also called H12-IgG4
Turning to B6, in [8], the “IC50 (read off the curve)” value is approximately 8 nM.

B7: anti-PD-L1 antibody clone A1, Fab format (Fab, V domains shown)
VH: QVQLQQSGAEVKKPGSSVKVSCKASGGTFSSYAISWVRQAPGQGLEWMGRIIPILGIANYAQKFQGRVTITADKSTSTAYMELSSLRSEDTAVYYCARGGSYGSLYAFDIWGQGTMVTVSS
VL: QSVLTQPPSVSAAPGQRVSISCSGRSSNIASHDVFWYQQLPGTAPKIVMYETNKRPWGIPDRFSGSKSGTSATLDIAGLQTGDEADYYCGAWDSGLTGMLFGGGTKVTVL
notes: From a human phage display library and tested as Fab; the Fab constant domains are not
Take B7: the binding result (in assay [11]; in assay [1]; in assay [12]; with biotinylated human PD-L1 [2]; in assay [3]) was “binds” in each case.

B8: anti-PD-L1 antibody H12_GL in IgG4 format (antibody, V domains shown)
VH: B7 VH with Q5V, G99S, S101H, Y102G, G103Y, L105Y, Y106G, I110Y, M116L
VL: B4 VL
notes: IgG4; also called H12_GL-IgG4
For B8, the “IC50 (read off the curve)” value in [8] is approximately 8 nM.

B9: anti-PD-L1 antibody H12_GL in IgG1 format (antibody, V domains shown)
VH: B7 VH with Q5V, G99S, S101H, Y102G, G103Y, L105Y, Y106G, I110Y, M116L
VL: B4 VL
notes: H12 with its framework reverted to germline-like; IgG1; also called H12_GL-IgG1
For the molecule B9, the “IC50 (read off the curve)” value in assay [8] is approximately 8 nM.

B10: anti-PD-L1 antibody clone C2, Fab format (Fab, V domains shown)
VH: B7 VH with M116T
VL: SYELTQPPSVSVAPGKTTRITCGGDNIGRKSVHWYQQRPGQAPLLLVYDDGDRPSGIPDRFSGSNSGNTATLTISGTQAMDEADYYCQAWDSTVVFGGGTRLTVL
notes: Tested as Fab
Turning to B10, the binding result in assay [1] and in [3] was “binds” throughout. Besides, the “IC50 (read off the curve)” value with biotinylated human PD-L1 [2] was approximately 50 nM.

As usually defined, the EC50 (read off the curve) is the concentration giving half of the maximal effect. A lower EC50 (read off the curve) goes with an effect from little substance.

The values above are taken from US20200093922A1 (AGENCY FOR SCIENCE TECHNOLOGY AND RESEARCH, published 2020).
